Measured values from patent publication US20210102195A1 (TWIST BIOSCIENCE, published 2021).
Read-outs that look alike come from different tables or passages of the source.

Tests used:
CRTH2R [1] = target: T1, CRTH2R (UniProt Q9Y5Y4 1-395, limits assumed); assay: cell-based or functional assay
T1 sequence (looked up): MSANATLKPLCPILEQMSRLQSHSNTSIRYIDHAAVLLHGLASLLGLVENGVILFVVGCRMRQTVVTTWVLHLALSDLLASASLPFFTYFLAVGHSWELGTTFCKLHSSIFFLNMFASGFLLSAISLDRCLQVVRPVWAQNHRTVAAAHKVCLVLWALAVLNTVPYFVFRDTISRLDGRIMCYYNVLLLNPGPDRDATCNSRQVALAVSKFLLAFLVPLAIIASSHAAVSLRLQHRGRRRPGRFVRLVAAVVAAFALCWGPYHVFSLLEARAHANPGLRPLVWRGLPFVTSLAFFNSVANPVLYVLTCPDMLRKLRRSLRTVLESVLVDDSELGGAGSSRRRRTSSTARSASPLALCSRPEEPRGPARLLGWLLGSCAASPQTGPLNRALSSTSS

CRTH2R [2] = target: T1, CRTH2R; assay: flow cytometry (MFI), CHO CRTH2R-positive cells against parental CHO cells; same panel as in FIG. 15B; grey = CRTH2R cells, black = parental cells (no legend on the panel)
Protocol: (§1) Cell binding of anti-CRTH2R antibodies was determined by testing on CHO CRTH2R-positive cells (GFP+) and parental CHO cells (GFP−), comparing parental negative and target positive cells to rule out false-positives. Antibodies as listed in Table 14A were titrated starting at 100 nM (15 ug/mL) with 3-fold titrations, for a total of 8 points. Two antibodies (gPCR-51 and gPCR-52) were used as a positive control.

CRTH2R [3] = target: T1, CRTH2R; assay: flow cytometry (MFI), CHO CRTH2R-positive cells against parental CHO cells, 3-fold titration from 100 nM; grey = CRTH2R cells, black = parental cells (no legend on the panel)
Protocol: as §1

CRTH2R [4] = target: T1, CRTH2R; assay: flow cytometry (MFI), CHO CRTH2R-positive cells against parental CHO cells; same panel as in FIG. 15E; grey = CRTH2R cells, black = parental cells (no legend on the panel)
Protocol: as §1

CRTH2R [5] = target: T1, CRTH2R; assay: flow cytometry (MFI), CHO CRTH2R-positive cells against parental CHO cells; same panel as in FIG. 15C; grey = CRTH2R cells, black = parental cells (no legend on the panel)
Protocol: as §1

CRTH2R [6] = target: T1, CRTH2R; assay: cell-based or functional assay; remark: listed apart in the source
CRTH2R [7] = target: T1, CRTH2R; assay: flow cytometry (MFI), titration 0.05-100 nM on CRTH2R cells against parent cells; no legend on the panel: grey curve and grey EC50 taken as the CRTH2R cells, black (ND) as the parent cells
hCRTH2R [8] = target: T2, hCRTH2R (human, UniProt Q9Y5Y4 1-395); assay: flow cytometry (MFI) cell binding titration; number in grey print, taken with the upper grey curve; the sheet does not label the cell lines of the two curves
T2 construct: whole, on cells; h is read as human
T2 sequence (looked up): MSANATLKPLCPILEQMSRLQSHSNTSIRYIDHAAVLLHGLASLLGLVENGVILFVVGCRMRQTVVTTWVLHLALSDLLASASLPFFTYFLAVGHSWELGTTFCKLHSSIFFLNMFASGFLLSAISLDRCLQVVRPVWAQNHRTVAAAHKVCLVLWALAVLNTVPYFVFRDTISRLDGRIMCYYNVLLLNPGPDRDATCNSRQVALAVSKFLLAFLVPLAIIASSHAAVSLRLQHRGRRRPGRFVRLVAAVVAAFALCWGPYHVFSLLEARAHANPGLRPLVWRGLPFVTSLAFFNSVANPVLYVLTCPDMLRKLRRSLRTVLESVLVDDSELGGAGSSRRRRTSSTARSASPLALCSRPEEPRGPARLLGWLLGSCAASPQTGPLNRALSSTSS

hCRTH2R [9] = target: T2, hCRTH2R; assay: cell-based or functional assay
hCRTH2R [10] = target: T2, hCRTH2R; assay: flow cytometry (MFI) cell binding titration, upper grey curve; cell lines not labelled on the sheet
hCRTH2R [11] = target: T2, hCRTH2R; assay: cell-based or functional assay; remark: listed apart in the source
hCRTH2R [12] = target: T2, hCRTH2R; assay: flow cytometry (MFI) cell binding titration; number in grey print, taken with the upper grey curve; the sheet does not label the cell lines of the two curves; remark: listed apart in the source
hCRTH2R [13] = target: T2, hCRTH2R; assay: as above; remark: listed apart in the source
hCRTH2R [14] = target: T2, hCRTH2R; assay: cell-based or functional assay; remark: listed apart in the source
human CD3 epsilon = target: T3, human CD3 epsilon (human, UniProt P07766 23-126, limits assumed); assay: affinity of IgG; method not stated; human CD3 epsilon
T3 construct: also called hCD3; hCD3 epsilon
T3 sequence (P07766 23-126 limits assumed): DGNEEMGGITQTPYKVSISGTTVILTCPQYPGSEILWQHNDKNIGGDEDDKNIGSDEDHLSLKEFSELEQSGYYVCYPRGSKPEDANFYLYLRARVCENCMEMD

B1: CRTH2-9 (antibody, V domains shown)
VH: QVQLVQSGAEVKKPGSSVKVSCKASGGTFSSYAISWVRQAPGQGLEWMGGIIPIFGTANYAQKFQGRVTITADESTSTAYMELSSLRSEDTAVYYCARDMYYDFWLGDQSTGSLIGAEVVPADDAFDIWGQGTLVTVSS
VL: QSVLTQPPSVSAAPGQKVTISCSGSTSNIGNNYVSWYQQLPGTAPKLLIYENDERPSGIPDRFSGSKSGTSATLGITGLQTGDEADYYCATWDTRLSAVVFGGGTKLTVL
notes: CRTH2R IgG
With B1 the “IC50 fold difference of the PGD2 dose response (cAMP) with 100 nM IgG” value (“IC50 fold difference” for short) (CRTH2R [1]) was over 2 fold, the “antagonist activity in PGD2-induced cAMP assay at 33 nM IgG” value (CRTH2R [1]) was over 20% and the EC50 (CRTH2R [2]) was 0.0149 µM. It also gave an EC50 (CRTH2R [3]) of 0.0149 µM.

B2: CRTH2-27 (antibody, V domains shown)
VH: QVQLVESGGGVVQPGRSLRLSCAASGFTFDNYGMHWVRQAPGKGLEWVAVISYEGSNKKYADSVKGRFTISRDNSKNTLYLQMNSLRAEDTAVYYCARDMYYDFGSIYGEDVVGELPEVVPADDAFDIWGQGTLVTVSS
VL: QSALTQPASVSGSPGQSITISCTGTSNDVGAYNFVSWYQQHPGKAPKLMIYDISNRPSGVSNRFSGSKSGNTASLTISGLQAEDEADYYCSSYTRSNTRVFGGGTKLTVL
notes: CRTH2R IgG
B2 was tested, and the “IC50 fold difference” value (CRTH2R [1]) was over 2 fold, the EC50 (CRTH2R [2]) was 0.042 µM and the EC50 (CRTH2R [3]) was 0.042 µM.

B3: CRTH2-50 (antibody, V domains shown)
VH: QVQLVQSGAEVKKPGSSVKVSCKASGGTFSSYALSWVRKAPGQGLEWMGGTIPIFGTVNYAQKFQGRVTITADESTSTAYMELSSLRSEDTAVYYCARANQHFTRVIGQPSPAVPSRGYIYHGYHYYGMDVWGQGTLVTVSS
VL: QSALTQPASVSGSPGQSITISCTGTSSDIGGYNFVSWYQQHPGKAPKLMIYDVSNRPQGVSNRFSGSKSGNTASLTISGLQAEDEADYYCSSYTSSNTYVVFGGGTKLTVL
notes: CRTH2R IgG
B3 was tested, and the “IC50 fold difference” value (CRTH2R [1]) was over 2 fold, the EC50 (CRTH2R [4]) was 0.0196 µM and the EC50 (CRTH2R [3]) was 0.0196 µM.

B4: CRTH2-32 (antibody, V domains shown)
VH: QVQLVESGGGVVQPGRSLRLSCAASGFTFSKHGMHWVRQAPGKGLEWVAFISYEGSEKYYADSVKGRFTISRDNSKNTLYLQMNSLRAEDTAVYYCARDMYYDFHYSTVGATYYYYLGSETEVVPADDAFDIWGQGTLVTVSS
VL: QSALTQPASVSGSPGQSITISCTGTSSGVGGYDYVSWYQQHPGKAPKLMIYDDNNRPSGVSNRFSGSKSGNTASLTISGLQAEDEADYYCSSYTGSSTLYVFGGGTKLTVL
notes: CRTH2R IgG
For B4, the “IC50 fold difference” value (CRTH2R [1]) was over 2 fold, the EC50 (CRTH2R [5]) was 0.0124 µM and the EC50 (CRTH2R [3]) was 0.0124 µM.

B5: CRTH2-41-51 (Fc fusion, not shown: a dimerising Fc or GST)
chain: EVQLVESGGGLVQPGGSLRLSCAASGGIFRFNAMGWFRQAPGKERELVAGISGSGGDTYYADSVKGRFTISADNSKNTAYLQMNSLKPEDTAVYYCAAFRGIMRPDWGQGTLVTVSS
B5 was tested, and the “IC50 fold diff. of the PGD2 dose response in the CRTH2 DiscoverX allosteric cAMP assay (+ CRTH2-41-51-VHH against + no Ab)” value (CRTH2R [6]) was 2.18 fold and the EC50 (CRTH2R [7]) was 0.000181 µM.

B6: CRTH2-48-3 (antibody, V domains shown)
VH: EVQLVESGGGLVQAGGSLRLSCAASGSIFRINAMGWFRQAPGKEREGVAAINNFGTTKYADSVKGRFTISADNAKNTVYLQMNSLKPEDTAVYYCAAVRWGPRNDDRYDWGQGTQVTVSS
VL: DIQMTQSPSSLSASVGDRVTITCRASQSISSDLNWYQQKPGKAPKLLIYFASGLQSGVPSRFSGSGSGTDFTLTISSLQPEDFATYYCQQSYSSPLTFGGGTKVEIKR
notes: CRTH2R immunoglobulin (IgG); also called CRTH2-48-03
With B6 the EC50 (hCRTH2R [8]) was 0.000579 µM, the “IC50 of PGD2 in the CRTH2 DiscoverX cAMP assay after 200nM IgG pre-incubation (+ no Ab: 0.2487), the axis reads PGD2” value (hCRTH2R [9]) was 0.000356 µM and the “EC50 (read off the curve)” value (hCRTH2R [10]) was about 0.002 µM.

B7: CRTH2-48-27 (antibody, V domains shown)
VH: EVQLVESGGGLVQAGGSLRLSCAASGSIFHINAMGWFRQAPGKEREGVAAINNFGTTKYADSVKGRFTISANNAKNTVYLQMNSLKPEDTAVYYCAAVRWGPRNDDRYDWGQGTLVTVSS
VL: DIQMTQSPSSLSASVGDRVTITCRASQSISRYLHWYQQKPGKAPKLLIYGASRLESGVPSRFSGSGSGTDFTLTISSLQPEDFATYYCRQSYSTPWTFGGGTKVEIKR
notes: CRTH2R immunoglobulin (IgG)
B7 was tested, and the “IC50 of PGD2 in the CRTH2 DiscoverX cAMP assay after 200nM IgG pre-incubation (+ no Ab: 0.4559), the axis reads PGD2” value (hCRTH2R [11]) was 0.000407 µM and the EC50 (hCRTH2R [12]) was 0.000859 µM.

B8: CRTH2-48-21 (antibody, V domains shown)
VH: EVQLVESGGGLVQAGGSLRLSCAASGSFFSINAMGWFRQAPGKEREFVAGITRSGVSTSYADSVKGRFTISADNAKNTVYLQMNSLKPEDTAVYYCAAHRIVVGGTSVGDWRWGQGTQVTVSS
VL: DIQMTQSPSSLSASVGDRVTITCRTSQSISNYLNWYQQKPGKAPKLLIYATSSLESGVPSRFSGSGSGTDFTLTISSLQPEDFATYYCQQSYSTLLTFGGGTKVEIKR
notes: CRTH2R immunoglobulin (IgG)
For B8, the EC50 (hCRTH2R [13]) was 0.00132 µM and the “IC50 of PGD2 in the CRTH2 DiscoverX cAMP assay after 200nM IgG pre-incubation (+ no Ab: 0.4559), the axis reads PGD2” value (hCRTH2R [14]) was 0.000567 µM.

B9: CD3-56-05 (antibody, V domains shown)
VH: EVQLLESGGGLVQPGGSLRLSCAASGFTFSSYAMNWVRQAPGKGLEWVSAVSGSGGRTYYADSVKGRFTISRDNSKNTLYLQMNSLRAEDTAVYYCARERATTLDYWGQGTLVTVSS
VL: DIQMTQSPSSLSASVGDRVTITCRASQTIYSHLNWYQQKPGKAPKLLIYVASRLQSGVPSRFSGSGSGTDFTLTISSLQPEDFATYYCQQSFSTSWTFGGGTKVEIK
notes: IgG; also called CD3-56-5
In the case of B9, the Kd (human CD3 epsilon) is reported as 0.067 µM.
